Reference: the supplement of paper PMC10724198
± gives the standard deviation of the averaged measurements.
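Also: PSI is a weighted mean of sequencing reads over stability bins, variants kept only with over 10 reads, mCherry proximal and sfGFP distal, peptide attached via GGGS linker.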

Each sequence was assayed on Saccharomyces cerevisiae (assay: protein stability index of tFT-peptide fusion (C-terminal peptide) (PSI (0-1 scale)); higher = more stable (slower turnover)). Details: genetic background: wild type; temperature: 30 C.
Method: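 Multiplexed protein stability (MPS) profiling in S. cerevisiae. Random 12-aa peptides (tFT-X12 library) are fused to the C-terminus of a sfGFP-mCherry tandem fluorescent timer, after mCherry and a GGGS linker. Cells are FACS-sorted into 8 mCherry/sfGFP bins and deep-sequenced. The protein stability index (PSI) is the read-weighted bin average, scaled from 0 (unstable) to 1 (stable). Only peptides with >10 reads are reported; cells were grown at 30 °C in SC-His with glucose.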
In the case of RGRRPRPGGTGT, the protein stability index is reported as 0.641 ± 0.016.
For RPRPKRCGPRSV, the protein stability index was 0.672 ± 0.052.
With TSTGARTMFNPV the protein stability index was 0.646 ± 0.061.
Work on KSSTLRKIKRGK yielded a protein stability index of 0.716 ± 0.03.
QKKNQNKQEQKL was tested, and the protein stability index was 0.683 ± 0.021.
With AKACHGGSTLPG the protein stability index was 0.609 ± 0.045.
For AFPGCRPFRPLH, the protein stability index was 0.709 ± 0.056.
Sequence RGRRRGGQQIAE has a protein stability index of 0.666 ± 0.007.
LLFLLGTLYHPY showed a protein stability index of 0.635 ± 0.11.
In the case of GKSTFWTELAII, the protein stability index is reported as 0.648 ± 0.045.
LSVFCALPFVAL gave a protein stability index of 0.7026 ± 0.0048.
Work on VRINNIGKRVNR yielded a protein stability index of 0.706 ± 0.025.
In the case of KKIRSMRREGQR, the protein stability index is reported as 0.714 ± 0.08.
For VFFCALCRLWLG, the protein stability index was 0.5 ± 0.029.
In the case of RARELGVPPPPP, the protein stability index is reported as 0.579 ± 0.066.
With NKQTAEIGRGSC the protein stability index was 0.651 ± 0.03.
EALVVLGVGFFG showed a protein stability index of 0.651 ± 0.021.
RADGHGARFRVR gave a protein stability index of 0.799 ± 0.009.
YCSITGIRLLVG showed a protein stability index of 0.579 ± 0.023.
Sequence CPPRIVRPRGVK has a protein stability index of 0.6775 ± 0.0019.
FSRSDREIFPRN was tested, and the protein stability index was 0.585 ± 0.07.
Sequence WLSMLLTVAPHH has a protein stability index of 0.64278 ± 0.00026.
Work on YKSELSIPYAPV yielded a protein stability index of 0.687 ± 0.015.
GCRLVSDCRVFV was tested, and the protein stability index was 0.67 ± 0.031.
RPSARSLVSPSP showed a protein stability index of 0.716 ± 0.025.
FAEWVRFWPGLV was tested, and the protein stability index was 0.6682 ± 0.0064.
In the case of RRGKIETKESKK, the protein stability index is reported as 0.712 ± 0.044.
With DRDRVLLRGYRH the protein stability index was 0.57134 ± 0.00013.
Work on WNGIDQSMSGRR yielded a protein stability index of 0.694 ± 0.099.
RGVGWVLEVLLG was tested, and the protein stability index was 0.518 ± 0.0087.
For FIKSRRLCCVNL, the protein stability index was 0.663 ± 0.032.
GGGCGGGGSSCA gave a protein stability index of 0.654 ± 0.069.
LGCCVFGFVFPS was tested, and the protein stability index was 0.672 ± 0.047.
Sequence IQAVSRDYVELR has a protein stability index of 0.652 ± 0.031.
In the case of KIYLKDKKKSKK, the protein stability index is reported as 0.668 ± 0.057.
Sequence WKGEMRDDGGRR has a protein stability index of 0.687 ± 0.041.
With SSFVFGLCGGVA the protein stability index was 0.694 ± 0.03.
With EGGILHKKFTKS the protein stability index was 0.696 ± 0.025.
KGRKVVLETQLQ was tested, and the protein stability index was 0.7 ± 0.018.
GRVGFSRSFKCC showed a protein stability index of 0.641 ± 0.14.
In the case of VSIGGLLGCVLF, the protein stability index is reported as 0.692 ± 0.048.
Sequence THSLCIKPRTVV has a protein stability index of 0.517 ± 0.0056.
In the case of LPPPPRPLPRSL, the protein stability index is reported as 0.732 ± 0.018.
Sequence HPQPIPVGGLSF has a protein stability index of 0.6962 ± 0.0049.
With IIIEYNINRKKI the protein stability index was 0.611 ± 0.05.
Work on FCLFTYIPSSCL yielded a protein stability index of 0.664 ± 0.035.
Sequence PPVPDSFAAFLR has a protein stability index of 0.743 ± 0.089.
In the case of ELGLGGCGGLGV, the protein stability index is reported as 0.7 ± 0.03.
Sequence VTNVTSETRVLT has a protein stability index of 0.6816 ± 0.0013.
LPQVKLGRIYTY was tested, and the protein stability index was 0.683 ± 0.032.
Sequence LCCSFGLFTLFW has a protein stability index of 0.711 ± 0.042.
QTDRPPPVSPPR was tested, and the protein stability index was 0.671 ± 0.047.
VSGCVMIYGRTV showed a protein stability index of 0.724 ± 0.027.
In the case of RRVGSGGLEGIG, the protein stability index is reported as 0.528 ± 0.019.
For VGGRGLVWVWGG, the protein stability index was 0.631 ± 0.059.
NGTGGASSLAFG gave a protein stability index of 0.689 ± 0.052.
Work on ANKNDHNNQRQA yielded a protein stability index of 0.789 ± 0.09.
Work on PGAFDLPHSQAV yielded a protein stability index of 0.552 ± 0.059.
PFRFLFGISLFF gave a protein stability index of 0.559 ± 0.015.
QGIKRPSSNKSK was tested, and the protein stability index was 0.731 ± 0.13.
For SISLVLPASCIT, the protein stability index was 0.693 ± 0.021.
For KKKIINEKKKKD, the protein stability index was 0.70019 ± 0.00067.
Sequence LISNEGASRWDL has a protein stability index of 0.625 ± 0.018.
For FASPPPLPLPPH, the protein stability index was 0.694 ± 0.02.
VGSVWGDCLGYL showed a protein stability index of 0.701 ± 0.049.
For SHPWLLDCVTTF, the protein stability index was 0.706 ± 0.044.
In the case of RIATRCEGPGHK, the protein stability index is reported as 0.663 ± 0.015.
FSRAFLDRVIVS showed a protein stability index of 0.713 ± 0.04.
PPLRPPPPLPVP showed a protein stability index of 0.663 ± 0.054.
Work on SGGPDCLSMSGL yielded a protein stability index of 0.694 ± 0.025.
Sequence GGWTFGSPPYEI has a protein stability index of 0.693 ± 0.015.
Work on WWLRLVLCGWEW yielded a protein stability index of 0.721 ± 0.074.
In the case of TFPATSLPSFSL, the protein stability index is reported as 0.6861 ± 0.0031.
With PPPPPAPTTSVP the protein stability index was 0.6829 ± 0.002.
HFPLRIYSPNGP gave a protein stability index of 0.697 ± 0.095.
HNIQHKIHTKSR was tested, and the protein stability index was 0.761 ± 0.039.
For LGGGVLDVRGQL, the protein stability index was 0.711 ± 0.011.
For HPPRPPLPRPRL, the protein stability index was 0.778 ± 0.19.
For DERESLFPLCSG, the protein stability index was 0.725 ± 0.015.
SLQTHCHKGPLS gave a protein stability index of 0.718 ± 0.0099.
PLHRARAPHSYP showed a protein stability index of 0.7167 ± 0.006.
With LVQVGDKRFNRL the protein stability index was 0.651 ± 0.01.
Sequence PPPLGPPPPSSL has a protein stability index of 0.774 ± 0.072.
For LLLPPLSSSPPP, the protein stability index was 0.7111 ± 0.0032.
With GEPSYLEYSNLV the protein stability index was 0.765 ± 0.042.
FITRATRESRIG showed a protein stability index of 0.694 ± 0.0073.
Work on SCVNGYSVCMCW yielded a protein stability index of 0.524 ± 0.046.
For VGGSERVWVKSL, the protein stability index was 0.537 ± 0.043.
Sequence TVGSPTPRSSAP has a protein stability index of 0.707 ± 0.0098.
CVGGFLEGIRLG gave a protein stability index of 0.711 ± 0.041.
With LSPTQSTLPTPP the protein stability index was 0.673 ± 0.01.
In the case of LLRWEPNYTENL, the protein stability index is reported as 0.796 ± 0.028.
PSAPSLPPFFPP was tested, and the protein stability index was 0.644 ± 0.04.
GLIATWMYKFVF gave a protein stability index of 0.617 ± 0.038.
GEDGCGWSEAGG was tested, and the protein stability index was 0.664 ± 0.017.
LNHQSSVHLNTP showed a protein stability index of 0.732 ± 0.034.
Work on RLNRSRAVTFRI yielded a protein stability index of 0.663 ± 0.019.
Work on GEAVTGQRGATS yielded a protein stability index of 0.71 ± 0.025.
SDPASVIPMELE gave a protein stability index of 0.673 ± 0.052.
Sequence WVGGVACGAGGG has a protein stability index of 0.62 ± 0.069.
In the case of SFRVLCHGAQLL, the protein stability index is reported as 0.634 ± 0.065.
PPPPPSSFPFPP showed a protein stability index of 0.656 ± 0.049.
Work on WLGLGGARGCML yielded a protein stability index of 0.745 ± 0.057.
For RNQQQENNKQSK, the protein stability index was 0.694 ± 0.016.
Work on PRWYVSFRTDDW yielded a protein stability index of 0.709 ± 0.15.
Work on SSCTRLSILVWF yielded a protein stability index of 0.52 ± 0.0056.
IPCKVCQSLIPP was tested, and the protein stability index was 0.611 ± 0.12.
Work on QGVGDILARVQG yielded a protein stability index of 0.697 ± 0.048.
Work on VGGMGAEGRGGK yielded a protein stability index of 0.721 ± 0.009.
FWGPVWNVSWGV showed a protein stability index of 0.695 ± 0.019.
RFSPRSLIFFPS gave a protein stability index of 0.612 ± 0.03.
SGGSALGCGRAA showed a protein stability index of 0.658 ± 0.063.
With RGGGEWGKEDSQ the protein stability index was 0.705 ± 0.019.
RHTFMCQRRVGL was tested, and the protein stability index was 0.78 ± 0.084.
Sequence YSFVKEFLNHRY has a protein stability index of 0.681 ± 0.036.
GSAGYLCQCSDI was tested, and the protein stability index was 0.681 ± 0.017.
Sequence GRVGCGRNRLWS has a protein stability index of 0.67 ± 0.053.
With RHPPPRSSPPDL the protein stability index was 0.639 ± 0.095.
Work on SSAALSPPPPRP yielded a protein stability index of 0.724 ± 0.027.
GCQVAVGRAGGV showed a protein stability index of 0.659 ± 0.023.
ACGDRGGLCSEG gave a protein stability index of 0.616 ± 0.066.
For KKILNKEKSKMA, the protein stability index was 0.7181 ± 0.0049.
With VSRGIFSGRGGV the protein stability index was 0.736 ± 0.018.
Sequence PPPPPPASPPSP has a protein stability index of 0.71 ± 0.015.
With VFRSGGNQDIKV the protein stability index was 0.648 ± 0.015.
HVLRCRASLLFL gave a protein stability index of 0.6305 ± 0.0031.
In the case of NKIRIIQVNLNR, the protein stability index is reported as 0.699 ± 0.17.
SVGGSRSGRGGQ gave a protein stability index of 0.688 ± 0.011.
PPYPLHPARPPY showed a protein stability index of 0.702 ± 0.036.
Sequence PLPPPDPPAPSL has a protein stability index of 0.716 ± 0.0085.
In the case of SSPALPPQPPSH, the protein stability index is reported as 0.723 ± 0.0054.
For KIKEIIKIKKKR, the protein stability index was 0.678 ± 0.009.
SPPLSLPFFPRP was tested, and the protein stability index was 0.641 ± 0.019.
GFFRRNLGRVMD showed a protein stability index of 0.608 ± 0.074.
LSHSHLYLFFHH gave a protein stability index of 0.6957 ± 0.0027.
FPRSCETPARAL was tested, and the protein stability index was 0.6607 ± 0.0043.
Sequence EGAGSAPCMVQG has a protein stability index of 0.68 ± 0.026.
In the case of GVRRAAFAKYGG, the protein stability index is reported as 0.655 ± 0.0071.
NKNKENMKRKTK showed a protein stability index of 0.682 ± 0.039.
NKQNKEIQPKRK showed a protein stability index of 0.653 ± 0.021.
With WGGLSRCAGVWL the protein stability index was 0.632 ± 0.034.
NEPNIRDRSIFS was tested, and the protein stability index was 0.688 ± 0.015.
In the case of ARPSRPPPPSPP, the protein stability index is reported as 0.662 ± 0.018.
With LARGGASIGGES the protein stability index was 0.701 ± 0.015.
KKKKKKKKKKPK gave a protein stability index of 0.611 ± 0.022.
With SRGARRRGGAGR the protein stability index was 0.656 ± 0.056.
